Molecular target: T1, rLiH2A (histone H2A) (Leishmania infantum, UniProt Q9BJC8 1-132)
T1 sequence: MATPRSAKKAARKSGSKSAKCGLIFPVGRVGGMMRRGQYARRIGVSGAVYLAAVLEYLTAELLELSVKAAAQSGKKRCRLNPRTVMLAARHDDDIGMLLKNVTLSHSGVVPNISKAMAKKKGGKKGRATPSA
Experiment: ELONA
Conditions: protein: recombinant; tags: His (Ni-NTA purified)

B1: AptLiH2A#1 (structured_DNA)
DNA: GCGGATGAAGACTGGTGTTGTGCAATGATTTTTCCGGTTGACCAGGTAGGAATTGTAGGCCCTAAATACGAGCAAC
Kd: 0.96 ± 0.17 nM

B2: AptLiH2A#2 (structured_DNA)
DNA: GCGGATGAAGACTGGTGTGGAGTCTACCCTGTTTTCTAGTCTGCCATCCCTATCCCATGCCCTAAATACGAGCAAC
Kd: 1.16 ± 0.28 nM
